B1: HDV Ribozyme (parent)
chain: GGCCGGCAUGGUCCCAGCCUCCUCGCUGGCGCCGGCUGGGCAACAUUCCGAGGGGACCGUCCCCUCGGUAAUGGCGAAUGGGACCCA
B2: Hairpin Ribozyme (parent)
chain: GUCCUCUUUCACGUGCGCGUGAAAGAGAGAAGUGAACCAGAGAAACACACGUUGUGGUAUAUUACCUGGUA

One data set covers variants of B1. The experiment in a line: self-cleavage, relative activity (ratio to wild type); higher = more cleavage; co-transcriptional.
In the case of G53U A56G, the self-cleavage amounted to 1.03.
The same measure, in the same setting: under G6A C30G stands 0.0678; under U23A U60G, 0.923.
Same read-out and setting: under C44A G82A stands 0.153; under G1A U72C, 0.107; under A77G G82A, 0.364.
Still for that read-out and setting: the same measure for C15G G28C: 0.107; for C15G U27C: 0.277.
Turning to U27G G81U, the self-cleavage came to 0.643.
The same measure, in the same setting: under C24U A56U stands 0.401; under C4A C26A, 0.332; under G39U C64U, 0.597.
On the same count and under the same terms, the same measure for C13G C41U: 0; for G52U G80A: 0.528; for A16U A70C: 0.538.
Still for that read-out and setting: the same measure for C15G G74A: 0.13; for C33A G80A: 0.123; for A42C A83U: 0.122.
As for C62U C66U, the self-cleavage was 0.953.
Same read-out and setting: under C22G A71U stands 0.0923.
Same read-out and setting: under G10C U47G stands 1.35; under G2C C19U, 0.0665; under G35C C63G, 0.0449.
C36A U46G: the self-cleavage turned out to be 0.123.
Same read-out and setting: the same measure for G5A G39A: 0.181.
Still for that read-out and setting: the same measure for G40A C49A: 0.95; for C18G C19U: 0.0898.
Same read-out and setting: under A77G C85U stands 1.04; under C15G U79C, 0.342; under C7U C18A, 0.
Regarding C58A C63U, the self-cleavage was determined as 1.02.
On the same count and under the same terms, under C15A C84A stands 0.539; under G5C A77U, 0; under G2A A78C, 0.0432.
Same read-out and setting: under G5U G74C stands 0.0475.
As for C19U C57G, the self-cleavage stood at 0.089.
On the same count and under the same terms, the same measure for C57G G68A: 1.18; for C14U A16G: 1.21.
On the same count and under the same terms, the same measure for C63A A70C: 0.883; for C14U G55C: 1.05; for U27C G31A: 0.251.
Still for that read-out and setting: the same measure for C4U G76U: 0.831.
On to C33U C36A, for which the self-cleavage worked out at 0.151.
Same read-out and setting: the same measure for C26U G67A: 0.947; for C4U C18U: 0.323; for G52U A70C: 0.577.
C26A C30U: the self-cleavage came to 0.68.
Consider C14U G67A, for which the self-cleavage was determined as 1.09.
The same measure, in the same setting: the same measure for A70G U72G: 0.582.
Same read-out and setting: under G6A C57A stands 0.966.
Turning to U46C A87G, the self-cleavage amounted to 0.727.
On the same count and under the same terms, the same measure for G35A C75A: 0.151; for C33A G55C: 0.181; for U79C G82U: 0.256.
Still for that read-out and setting: under G25A G38U stands 0.0744; under G17U G67A, 0.564; under G10U C64U, 0.748.
Still for that read-out and setting: under G35C C64A stands 0.113.
Consider C4G G28C, for which the self-cleavage worked out at 0.101.
Same read-out and setting: under C4G G59A stands 0.198.
On the same count and under the same terms, under C61G A71C stands 0.787; under G17U A87G, 0.499; under U12G U37C, 0.692.
Same read-out and setting: the same measure for G29U U47G: 0.
Turning to G5A G11C, the self-cleavage was 0.214.
The same measure, in the same setting: the same measure for U20A G38C: 0.119.
Still for that read-out and setting: under G1C C44G stands 0.0692; under G1U G54C, 0.361.
Same read-out and setting: under C4G A42U stands 0.0875.

The next data set covers variants of B2. The description is as above.
For A36U U62G, the self-cleavage stood at 0.216.
Turning to C12G A23C, the self-cleavage was determined as 0.511.
Still for that read-out and setting: the same measure for U2C U53G: 0.0768.
On the same count and under the same terms, the same measure for C6U C50G: 0.299.
With A24U G57A, the self-cleavage came to 0.196.
Still for that read-out and setting: the same measure for C3U U55C: 0.153; for C18A A24C: 0.994; for U53G G68C: 0.18.
Take A43C U53A: the self-cleavage is 0.129.
Same read-out and setting: the same measure for U2G C37U: 0.319; for U9G A11G: 0.551.
With C12G A30G, the self-cleavage amounted to 0.247.
Still for that read-out and setting: the same measure for G51C G54C: 0.215.
Still for that read-out and setting: under A24C A44C stands 0.0908; under C6A A35U, 0.428; under U14C G56C, 0.163.
Regarding G42C U52C, the self-cleavage was 0.427.
Same read-out and setting: under C3U C46U stands 0.151; under U20C C65U, 0.284; under U33G A45G, 0.0332.
The same measure, in the same setting: under A43G A71G stands 0.165; under G25C A47C, 0.217.
On the same count and under the same terms, under U55C U58A stands 0.257.
Turning to C10U G54A, the self-cleavage turned out to be 0.561.
Still for that read-out and setting: the same measure for C4U C6G: 0.0904; for C46G A49C: 0.13.
Still for that read-out and setting: under G25U U58A stands 0.447; under A28U A35U, 0.505.
Same read-out and setting: under C37A A61C stands 0.136.
As for C3U U14C, the self-cleavage is 0.451.
Still for that read-out and setting: the same measure for G15U A26C: 0.96; for U52C U55G: 0.301.
Same read-out and setting: under G34U A41U stands 1.53; under C10G U33G, 0.25.
For the variant G32A G40C, the self-cleavage was determined as 0.156.
Still for that read-out and setting: under C4G C46U stands 0.235; under C38A U53G, 0.0628.
With G27U A41C, the self-cleavage was found to be 0.423.
Consider A22G A59U, for which the self-cleavage came out at 0.0393.
For C18A U62C, the self-cleavage is 0.22.
On the same count and under the same terms, under G40U U62A stands 0.141; under A28U G68U, 0.272.
On the same count and under the same terms, under A28U G68C stands 0.151.
Same read-out and setting: under G34U U67A stands 0.876.
Consider G15C G17U, for which the self-cleavage came out at 0.959.
The same measure, in the same setting: under U53C U67G stands 0.462; under G25C U70A, 0.574; under C12A U62C, 0.0739.
On the same count and under the same terms, under C3U U9G stands 0.337; under A41U A64C, 0.153.
Still for that read-out and setting: the same measure for G21U A30G: 0.149.
Turning to G27U G32U, the self-cleavage is 0.211.
On the same count and under the same terms, under C50G U55A stands 0.153; under C18A C50A, 0.314.
Same read-out and setting: the same measure for G21C G54U: 0.511.
For the variant U9C G69A, the self-cleavage turned out to be 0.357.
The same measure, in the same setting: the same measure for C38G A64C: 0.0814.
For C18G A49C, the self-cleavage came to 0.12.
Same read-out and setting: the same measure for U5A C66G: 0.176.
Regarding C3U U5G, the self-cleavage was 0.318.
On to A22U C46U, for which the self-cleavage is 0.117.
As for A44G U67C, the self-cleavage turned out to be 0.145.
The same measure, in the same setting: under C6A C50G stands 0.175; under C16G A49G, 0.544; under C18G C65G, 0.212.
Still for that read-out and setting: under C6G U53G stands 0.454.
Consider C38U U55G, for which the self-cleavage was 0.137.
In the case of C38U U53G, the self-cleavage is 0.431.
On the same count and under the same terms, under C46U A49G stands 0.24; under C46A A71C, 0.342; under G29A C50G, 0.187.
On the same count and under the same terms, under A31U A43C stands 0.169; under A39G G54A, 0.143.
Same read-out and setting: the same measure for U8A U55A: 0.184; for A30C A61C: 0.251; for A43C A61U: 0.0908.
With G1U U33C, the self-cleavage was determined as 0.173.
Still for that read-out and setting: under U5G A41G stands 0.129; under C6G U70G, 0.361.
Same read-out and setting: the same measure for G15A A43G: 0.155; for C4G U8C: 0.0934; for C18U C38G: 0.158.
With G25A C46G, the self-cleavage turned out to be 0.135.
On the same count and under the same terms, under A28G U67C stands 0.276.
Still for that read-out and setting: under A11C G51U stands 1.13; under C6A G51U, 0.58.
As for U53G C66U, the self-cleavage amounted to 0.552.
The same measure, in the same setting: under C3A G21U stands 0.655; under G15U A71G, 1.12; under C18U C48U, 0.0571.
The same measure, in the same setting: the same measure for U33G C46U: 0.16; for A61G U70G: 0.156; for U9C A28U: 0.571.
Take G21U A44C: the self-cleavage is 0.117.
Take C12A G51C: the self-cleavage stood at 0.78.
Still for that read-out and setting: the same measure for A47G U62A: 0.0725.
As to U20G A39C, the self-cleavage was 0.461.
The same measure, in the same setting: under G19U C46A stands 0.17.

Source of the values: the RNAGym collection of RNA variant scans (doi:10.7554/elife.80360).
